The values below come from paper PMC8828546, “OsWRKY53 Promotes Abscisic Acid Accumulation to Accelerate Leaf Senescence and Inhibit Seed Germination by Downregulating Abscisic Acid Catabolic Genes in Rice”.

The data set has as its target OsWRKY53 (Oryza sativa (rice), UniProt A7BEY7 1-487). Put plainly: EMSA; unlabeled probe competitor at 10-, 50-, 100-fold also run (outcome only in gel); EMSA: room temperature, 20 min; binding buffer, salt and pH not stated; 6% native acrylamide gel, 0.5x TBE, 4 C, 110 V, 2 h. Particulars: protein: recombinant; tags: His; TF (pCold-TF vector); label: 5'-FAM on one strand; annealed with complementary oligo.

OsWRKY53, sequence (A7BEY7 entry or part of it): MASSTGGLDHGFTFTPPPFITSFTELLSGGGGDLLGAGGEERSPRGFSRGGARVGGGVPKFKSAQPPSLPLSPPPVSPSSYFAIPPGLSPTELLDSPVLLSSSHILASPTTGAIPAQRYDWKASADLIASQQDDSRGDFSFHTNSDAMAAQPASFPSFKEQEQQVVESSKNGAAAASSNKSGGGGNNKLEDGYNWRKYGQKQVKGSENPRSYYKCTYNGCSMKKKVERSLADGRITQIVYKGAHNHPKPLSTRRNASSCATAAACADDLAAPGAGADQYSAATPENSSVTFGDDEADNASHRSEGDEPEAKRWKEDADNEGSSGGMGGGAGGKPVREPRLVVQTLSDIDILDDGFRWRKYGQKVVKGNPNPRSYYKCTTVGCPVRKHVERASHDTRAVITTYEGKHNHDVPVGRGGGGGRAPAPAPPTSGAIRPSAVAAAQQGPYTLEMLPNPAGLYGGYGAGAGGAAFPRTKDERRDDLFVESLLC

B1: OsABA8ox1 promoter W-box probe (dsDNA)
DNA 1: ACAGGTTGACCTTTGCAT
DNA 2: ATGCAAAGGTCAACCTGT
On to B1, for which the binding result is “binds”.
